Measured values reported in patent US20040219155A1.

Molecular target: Fc gamma receptor (Fc(γ)R) on dendritic cells
Assay: cell-based or functional assay

DC uptake of apoptotic tumor cells: 300%
Substance: monoclonal antibody 3G4 (ATCC PTA 4545)
